In patent US5668264:

Molecular target: PDGF AB (Homo sapiens) (UniProt P04085+P01127)
Experiment: filter
Conditions: 2'-F on all C and U; random starting pool

Chain of PDGF AB (Homo sapiens) (P01127 82-190, chain 2 of 2, other chains not shown): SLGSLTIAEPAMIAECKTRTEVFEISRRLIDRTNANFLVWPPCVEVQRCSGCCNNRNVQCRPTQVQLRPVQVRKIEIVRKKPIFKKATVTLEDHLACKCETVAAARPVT

For “GGGAGACAAGAAUAACGCUCAANNNNNNNNNNNNNNNNNNNNNNNNNNNNNNNNNNNNNNNNNNNNNNNNNNUUCGACAGGAGGCUCACAACAGGC [random 2'-F pyrimidine RNA pool (50N)]”, the Kd was 35 nM.
